Assay results as given in patent publication US20060263354A1 (Amgen, published 2006).
Substitutions are numbered along the chain they refer to.

B1: 2-112-1 (antibody, V domains shown)
VH: EVQLLESGGGLIQPGGSLRLSCAASGFTFSSFAMSWVRQAPGKGLEWVSTISGSGGYTFYADSVKGRFTISRDNSKNTLYLQMNSLRAEDTAVYYCAKDGRYNWNYGAFDIWGQGTMVTVSS
VL: EIVMTQSPATLSVSPGERATLSCRASQSVSSNLAWYQQKPGQAPRLLIYGASTRATGFPARFSGSGSGTEFTLTISSLQSEDFAIYYCQQYNNWPLTFGGGTKVEIKR
notes: Full-length deduced chains
B2: 2-43-1 (antibody, V domains shown)
VH: B1 VH with I12V, F32Y, T50A, Y57S, K65T, Y80F, M83L, Y95H, Y102F, F109S
VL: B1 VL with A25T, F58I, I85V
notes: Full-length deduced chains
B3: 2-177-1 (antibody, V domains shown)
VH: B1 VH with Y57S, F59Y, S63F
VL: B1 VL with S30R, Y36F, F58I, I85V
notes: Full-length deduced chains

Biological target: T1, peptide 1 (human)
T1 construct: also called peptide 1 of mature GDF8
T1 peptide: DFGLDCDEHSTESRCCRY
Test: peptide ELISA
Description: (§1) Eleven peptides were generated from mature GDF8 to test and localize antibody binding (See FIG. 6). Peptide ELISA was done on glutaraldehyde coated ELISA plates and on uncoated ELISA plates (NUNC-Immuno™ plate MaxiSorp™ surface, Nalge Nunc International, Cat. No. 439454). Glutaraldehyde coated plates were prepared by mixing 250 μl glutaraldehyde (50% w/v) with 50 ml deionized water and adding 200 μl of the solution into each well. Plates were incubated for at least 1 hour at room temperature. The glutaraldehyde was shaken out of the plate and smashed upside down on paper towels to remove all the liquid prior to use.
(§2) ELISA plates were coated with peptide at 1.0 μg/well/50 μl (in Sodium bicarbonate buffer, pH 9.6) for at least 4 hours, and then blocked with 200 μl blocker (1%BSA, 1%Ethanolamine pH 7.4) for minimum 4 hours. Plates were washed with PBST three times with 200 μl/well. 50 μl antibody (1 μg/ml in PBST, Phosphate-buffered saline (PBS) with 0.05% Tween-20) sample was added to the wells for 1 hour. Plates were then washed with PBST three times. 50 μl anti-human IgG-horseradish peroxidase(HRP) (Pierce, Cat# 31420) diluted in PBST is added for another hour. The wells were washed again with TBST three times, and then with deionized water twice. 50 μl ABTS (MOSS) was added for 5-20 minutes, and the signal was detected at 405 nm in a colormetric plate reader.

Binding result, binds:
B1, B2, B3

Biological target: T2, peptide 5 (human)
T2 construct: also called peptide 5 of mature GDF8
T2 peptide: CCTPTKMSPINMLYFNGK
Test: peptide ELISA
Description: as §1, §2

Binding result, binds:
B1, B2, B3

These binders were tested against T3, mature GDF8 from mouse serum (mouse, UniProt O08689 268-376) (assay: immunoprecipitation from mouse serum, western blot).
T3 construct: mature; also called mouse serum mature GDF8
T3 sequence (looked up): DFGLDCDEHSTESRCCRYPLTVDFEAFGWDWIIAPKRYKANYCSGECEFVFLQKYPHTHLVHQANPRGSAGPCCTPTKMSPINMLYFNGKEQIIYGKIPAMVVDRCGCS
Description: An immunoprecipitation study was conducted to test the binding of myostatin antibodies to mature GDF8 from mouse serum. […] mouse serum (Rockland, Cat ## D208-00) was incubated with 20 μg myostatin antibodies for 16 hours at 4° C. Protein A Dynalbeads were added and incubated for 90 minutes at 4° C. The immunoprecipitate was collected using MPC-E magnetic concentrator (Dynal, Norway), and washed four times with PBS. […] Western blotting was performed using Odyssey Infrared imaging system (Li-Cor). Mature GDF8 was detected using biotinylated goat anti-myostatin antibody (R&D systems, Cat# BAF788). […] It is known that mature GDF8 in the serum binds to many inhibitory proteins such as propeptide, FLRG, and GASAP1 (Hill et al. (2002) The myostatin propeptide and the follistatin-related gene are inhibitory binding proteins of myostatin in normal serum. J. Biol. Chem. 277: 40735-40741. Hill et al. (2003) Regulation of myostatin in vivo by growth and differentiation factor-associated serum protein-1: a novel protein with protease inhibitor and follistatin domains. Mol. Endocrin. 17(6): 1144-1154). […] Such non-competitive neutralizing antibodies would be advantageous in vivo.

Binding result, binds:
B1, B2, B3

What follows are binders tested against T4, mature GDF8 (human, UniProt O14793 267-375) (assay: immunoprecipitation from 293T conditioned medium, western blot).
T4 construct: also called myostatin; mstn
T4 sequence: T3 sequence (looked up)
Description: An immunoprecipitation study was conducted to test the binding of myostatin antibodies to mature GDF8 and mature GDF8/propeptide complex. 293T cells were transfected with GDF-8 expression construct. Conditioned media was harvested 7 days after transfection, which contained mature GDF8 and latent complex. 100 μl conditioned media was incubated with 10 μg myostatin antibodies for 16 hours at 4° C. Protein A Dynabeads (Dynal, Norway) were added and incubated for 90 minutes at 4° C. The immunoprecipitate was collected using MPC-E magnetic concentrator (Dynal, Norway), and washed four times with PBS. […] Western blotting was performed using Odyssey infrared imaging system (Li-Cor). Mature GDF8 and unprocessed GDF8 were detected using goat anti-myostatin antibody (R&D systems, Cat# AF788). Rabbit anti-propeptide polyclonal antibody (made in-house) was used to detect both propeptide and unprocessed GDF8. […] No other antibodies immunoprecipitated mature GDF8, propeptide, or unprocessed GDF8. Lane 4 is the 1/10 medium loading control, and lane 7 is immunoprecipitation control with medium only.

Binding result, binds:
B1, B2, B3
